Reference: patent EP4659811A1 (Université de Strasbourg, dated 2025)

What was measured:
[1] = molecular target: VP1 capsid protein on BKV pseudovirions of genotype Ia (BK-D; JF894228) (BK virus genotype Ia (BK-D)); assay: cell-based or functional assay
[2] = molecular target: VP1 capsid protein on BKV pseudovirions of genotype II (GBR-12; AB263920) (BK virus genotype II (GBR-12)); assay: cell-based or functional assay
[3] = molecular target: VP1 capsid protein on BKV pseudovirions of genotype IVc2 (A-66H; AB369093) (BK virus genotype IVc2 (A-66H)); assay: cell-based or functional assay
[4] = molecular target: T1, VP1 pentamer of BKV genotype IV (recombinant) (BK virus genotype IV, UniProt P14996 30-300); assay: ELISA, coated VP1 pentamer
T1 construct: also called GIV; VP1 BKV subtype IV; not shown: N-terminal His-tag of pESPRIT002; C-terminal biotin acceptor peptide (BAP) of pESPRIT002

[5] = molecular target: T2, VP1 pentamer of BKV genotype II (recombinant) (BK virus genotype II, UniProt P14996 30-300); assay: ELISA, coated VP1 pentamer
T2 construct: also called GII; VP1 geno II pentamer; not shown: N-terminal His-tag of pESPRIT002; C-terminal biotin acceptor peptide (BAP) of pESPRIT002

Row | Binder | Neutralization PSV IC50 [1] | Neutralization PSV IC50 [2] | Neutralization PSV IC50 [3] | EC50 [4] | EC50 [5] | binding result [4] | binding result [5]
1 | antibody B9P6 (antibody, V domains shown) VH: EVQLVESGGGLVQPGGSLRLSCAASGFTFRSYTMDWVRQAPGKGLEWVSCISGSSNHKYYADSVRGRFTISRDNAKNSLFLQMNSLRAEDSAVYYCAREDDILTPLYGMDVWGPGTTVTVSS VL: EIVLTQSPDTLSLSPGARATLSCRASQSVRSNYLAWYQQKPGQAPRLLIYGASSRATAIPDRFSGSGSGTDFTLTITRLEPEDFAVYYCHQYGSSPRTFGQGTKVEIK | 0.0371 µg/mL | 0.0002 µg/mL | 0.0176 µg/mL | 0.12 µg/mL | 0.035 µg/mL | – | –
2 | antibody G11P1 (antibody, V domains shown) VH: EVQLVESGGGLVQPGGSLRLSCAASGFTFRSYSMDWVRQAPGKGLEWVSYISGSSNQKYYTDSVRGRFTISRDNAKNSLFLQMNSLRAEDSAVYYCAREDDILTPLYGMDVWGPGTTVTVSS VL: EIVLTQSPDTLSLSPGARATLSCRASQSVRSNYLAWYQQKPGQAPRLLIYGASSRATAIPDRFSGSGSGTDFTLTITRLEPEDFAVYYCHQYASSPRTFGQGTKVEIK | 0.112 µg/mL | 0.0008 µg/mL | 0.02 µg/mL | 0.035 µg/mL | 0.055 µg/mL | – | –
3 | antibody E11P6 (antibody, V domains shown) VH: EVQLVESGGGLVQPGGSLRLSCAASGFTFRSYSMDWVRQAPGKGLEWVSYISGSSNQKYYTDSVRGRFTISRDNAKNSLFLQMNSLRAEDSAVYYCAREDDILTPLYGMDVWGPGTTVTVSS VL: EIVLTQSPDTLSLSPGARATLSCRASQSVRSNYLAWYQQKPGQAPRLLIYGASSRATAIPDRFSGSGSGTDLTLTITRLEPEDFAVYYCHQYASSPRTFGQGTKVEIK | 0.216 µg/mL | 0.0028 µg/mL | 0.0452 µg/mL | 0.12 µg/mL | 0.09 µg/mL | – | –
4 | antibody E9P7 (antibody, V domains shown) VH: EVQLVESGGGLVQPGGSLRLSCTASGFTFRSYTMDWVRQAPGKGLEWVSCISGSSNHKYYADSVRGRFTISRDNAKNSLLLQMNSLRAEDSAVYYCAREDDILTPLYGMDVWGPGTTVTVSS VL: EIVLTQSPDTLSLSPGARATLSCRASQSVRSNYLAWYQQKPGQAPRLLIYGASSRATAIPDRFSGSGSGTDFTLTITRLEPEDFAVYYCHQYGSSPRTFGQGTKVEIK | 0.277 µg/mL | 0.0003 µg/mL | 0.0333 µg/mL | 0.2 µg/mL | 0.1 µg/mL | – | –
5 | antibody C6P8 (antibody, V domains shown) VH: EVQLVESGGGLVQPGGSLKLSCAASGFTFSGSEIHWVRQASGKGLEWIGRVRSRANRHATGYSESVKGRFTISRDDSKNTASLQLNSLKIEDTAVYYCTGVRGVISRYFAMDVWGQGTTVTVSS VL: SYVLTQTPSVSVAPGQTARITCGGNNIGSNSVHWYQQKPGQAPILVVYDDSERPSGIPERFSGSNSGNTATLTISRVEGGDEADYQCQVWDRRGDLLVFGGGTKLTVL | 6.92 µg/mL | 0.44 µg/mL | 1.74 µg/mL | 4 µg/mL | 3 µg/mL | – | –
6 | antibody B9P4 (antibody, V domains shown) VH: EVQLVESGGGVVQPGRSLRLSCAASGFTFSSYGMHWVRQAPGKGLEWVAVISKDGSNKYEADFVKGRFTISRDNSKNTLYLQMNSLRAEDTAVYYCAKIPLRRYSDSGDYSSGDFWGQGTLVTVSS VL: DVVMTQSPLSLTVTLGQPASISCRSSENLVYSDGNTYLSWFQQRPGQSPRRLIYKVSTRDSGVPDRFSGSGSGTDFTLKISRVEAEDVGVYYCMQTTHWPPLTFGGGTKVEIK | 4.96 µg/mL | 16.3 µg/mL | > 50 µg/mL | ≥ 10 µg/mL | ≥ 7 µg/mL | – | –
7 | antibody B5P4 (antibody, V domains shown) VH: QVQLVQSGAEVKKPGSSVKVSCKASGGRFSRYGSSWVRQAPGQGLEWMGGIIPLLGTANYAQKFQDRVSITADESTSTVYMHLSSLRSEDTAVYYCATARREYDRPGAEYFIQWGQGTLVTVSS VL: EIVMTQSPATLSVSPGERATLSCRASQSVSTNLAWYQQKPGQAPRLLIYDAFLRATGIPARFSGSGSGTEFTLTISSLQPEDFAVYYCQQYNYWPPLTFGGGTKVEIK | > 3.12 µg/mL | > 50 µg/mL | > 50 µg/mL | – | – | no binding (tested: starting at 50 µg/mL) | no binding (tested: starting at 50 µg/mL)
8 | antibody E5P6 (antibody, V domains shown) VH: EVQLVESGGGVVQPGRSLRLSCAASGFIFNNHGMHWVRQAPGKGLEWVAGISYDGKKEYYIGSVKGRFTISRDNSRNTLYLHMNGLRPEDTAVYYCAKEAYGSGSPCDYWGQGTLVTVSS VL: EIVLTQSPGTLSLSPGERATLSCRASQRVSSNYLAWYQQKPGQAPRLLIYGASSRATGIPDRFSGSGSGTDFTLTISRLEPEDFAVYYCQQYGTSPRSFGRGTKLEIK | > 50 µg/mL | > 50 µg/mL | > 50 µg/mL | 5 µg/mL | 6 µg/mL | – | –
9 | antibody E10P2 (antibody, V domains shown) VH: EVQLLESGGALVQPGGSLRLSCAASGFTFRSYAMNWVRQAPGKGLEWVSSLSSSGTTTYYADSVKGRFTISRDNSKNTMYLQMDSLRGEDTAVYYCAKDRNAQWLGSEPLDPWGQGTLVTVSS VL: EIVLTQSPGTLSLSPGERATLSCRASQSVSSSYLAWYQQKPGQAPRLLIYGASSRATGIPDRFSGSGSGTDFTLTISSLQPDDFAIYYCQQAYTFPWTFGQGTKLEIK | 1.64 µg/mL | 20.1 µg/mL | > 50 µg/mL | – | – | no binding (tested: starting at 50 µg/mL) | no binding (tested: starting at 50 µg/mL)
10 | antibody C10P7 (antibody, V domains shown) VH: QVQLVQSGSEVKKPGTSVKVSCKASGETYVGHSISWVRQAPGAGLEWMGWISLHNGNVKYAQKLQGRVTMTTDTSTITAYMELRNLTSDDTAVYYCARVPMKIYGVIVFGEYYYDQLDVWGQGTTVTVSS VL: QSALTQPPSASGSPGQSVTISCTGTGSDVGGYNYVSWYQQHPGKAPKLMIYEVSKRPSGVPDRFSGSKSGNTASLTVSGLQAEDEADYYCSSYAGSKVVFGGGTKLTVL | 6.56 µg/mL | 11.2 µg/mL | > 50 µg/mL | 18 µg/mL | 8 µg/mL | – | –
11 | antibody G8P7 (antibody, V domains shown) VH: QLQLQESGPGLVQPSETLSLTCTVSGGYISTSSYYWGWIRQPPGKGLEWIGSIEYSGSTYYNPSLKSRVTISVDTSKNQFSLKLSSVTAADTAVYYCASANSKYYDSGGYYAPGALDLWGQGTMVTVSS VL: EIVMTQSPATLSVSPGERATLSCRASQSVSSHLAWYQHKRGQAPRLLIYAASSRATGIPARFSGRGSGTEFTLTISSLQSEDFAVYYCQQYNNWPPGYSFGQGTKLEIK | > 50 µg/mL | 21.3 µg/mL | > 50 µg/mL | 5 µg/mL | 25 µg/mL | – | –
12 | antibody F11P5 (antibody, V domains shown) VH: QVQLVQSGSELKKPGASVKVSCKASAYTFTNSAINWVRQAPGQGLEWMGWINTNTGNPAYAQGFRGRFVFSLDTSVSEAYLQISNLKAEDTATYYCTVPYNFGGDHNSYYFFGVDIWGQGTTVTVSS VL: QSALTQPASVSGSPGQSITISCTGSSSDVGSYNLVSWFQQHPAKAPKVMIYEGTKRPSGVSDRFSGSKSGNTASLTISGLQAEDEADYYCCSYAGSNTFVFGTGTKVSVL | 0.492 µg/mL | 1.56 µg/mL | 46.5 µg/mL | – | – | – | –
